According to PMC5677083, “Characterization of ApoJ-reconstituted high-density lipoprotein (rHDL) nanodisc for the potential treatment of cerebral β-amyloidosis” (Scientific Reports, 2017):

Target: the molecule itself
Experiment: SEC; purified rApoJ on a size exclusion column; wide peak at 12-16 ml and a homogeneous peak at 16-18 ml (maximum 16.5 ml) of the elution volume; column and buffer are in the Supplementary Information

B1: recombinant human ApoJ (rApoJ), free (non-lipidated) (natural protein)
chain 1: DQTVSDNELQEMSNQGSKYVNKEIQNAVNGVKQIKTLIEKTNEERKTLLSNLEEAKKKKEDALNETRESETKLKELPGVCNETMMALWEECKPCLKQTCMKFYARVCRSGSGLVGRQLEEFLNQSSPFYFWMNGDRIDSLLENDRQQTHMLDVMQDHFSRASSIIDELFQDRFFTREPQDTYHYLPFSLPHRRPHFFFPKSRIVR
chain 2: SLMPFSPYEPLNFHAMFQPFLEMIHEAQQAMDIHFHSPAFQHPPTEFIREGDDDRTVCREIRHNSTGCLRMKDQCDKCREILSVDCSTNNPSQAKLRRELDESLQVAERLTRKYNELLKSYQWKMLNTSSLLEQLNEQFNWVSRLANLTQGEDQYYLRVTTVASHTSDSDVPSGVTEVVVKLFDSDPITVTVPVEVSRKNPKFMETVAEKALQEYRKKHREE
notes: apolipoprotein J (clusterin), human, beta chain: cut product of the precursor, disulfide-bonded to the alpha chain; apolipoprotein J (clusterin), human, alpha chain: cut product of the precursor, disulfide-bonded to the beta chain; Heterodimer of alpha and beta chains (about 40 kDa each, about 77 kDa non-reduced); They are written on the alpha chain on the surmise that they sit at the C-terminus …
binding result: binds
